Usually stoichiometry N stands for a count of units in the complex or per binding partner.

These results are taken from paper PMC8187382, “The archaeal protein SepF is essential for cell division in Haloferax volcanii” (Nature Communications, 2021).

This data set concerns the molecule itself. The data set is described as follows: SEC; 500 µl freshly purified SepF-His on Superdex 200 10/300 GL in Buffer A (1.5 M KCl, 100 mM NaCl, 50 mM HEPES, 1 mM DTT, pH 7.5), 0.5 ml/min; gel filtration standard run under the same conditions; no protein eluted at volumes of higher oligomers. A general note: SEC sorts molecules by how far they enter the pores of the column.

B1: SepF-His (H. volcanii SepF expressed in E. coli) (natural protein, Haloferax volcanii, UniProt D4H018 1-118, looked up)
chain: MGIMSKILGGGGSRTTEDYVELDLDDFDTARGDAGLSVHIAEIGGQQDVIAIKDAVYDGNLVIADITRHTTSDSTMEHIIDDLRQVAREVDGDIVQKGDDQIVITPTGISISRQKLNG
notes: SepF of Haloferax volcanii, encoded by hvo_0392, 118 amino acids, 12.6 kDa; sepF amplified from genomic DNA of strain H26 and cloned by FX-cloning; FX-cloning may leave extra residues at the ends; also called purified SepF; Hvo_0392
Turning to B1, the “stoichiometry N” value turned out to be 2.
